Results: publication PMC5784833 (Journal of the American Chemical Society, 2017)

System: CC(=O)Oc1ccc([N+](=O)[O-])cc1
Experiment: purified protein

carbonic anhydrase II (CA-II) (Homo sapiens)
Km: 2520 ± 260 µM
